Test results published in article PMC3097204.

How the values were obtained:
[1] = target: mature SsTroA domain (residues 36–317) (Streptococcus suis serotype 2 (strain 05ZYH33)); test: AUC; sedimentation velocity profiles analysed with SEDFIT; 1 mg/ml protein in 20 mM Tris-HCl (pH 8.0), 50 mM NaCl; 50,000 rpm, 20°C; monomer and dimer
[2] = target: mature SsTroA domain (residues 36–317) (Streptococcus suis serotype 2 (strain 05ZYH33)); test: SEC; analytical FPLC Superdex 200 profile of purified SsTroA

percent of the total protein in the dimer peak [1]: 6.8%
stoichiometry N [1]: 2
stoichiometry N [2]: 2
Substance: mature SsTroA domain (residues 36–317) (domain or fragment)
